# Results as given in patent US10821189B2, “CD38 ligand-drug conjugates for targeted cancer therapy” (THE METHODIST HOSPITAL SYSTEM, priority 2015, dated 2020).
# T1: cellular CD38 proteins from MM cells (MM1S) (Homo sapiens, UniProt P28907)
# T1 construct: cells were lysed in radioimmunoprecipitation assay (RIPA) buffer; endogenous in cells; host or cells: MM1S (CD38+ myeloma cell line), RIPA lysate
# T1 sequence (P28907 1-300): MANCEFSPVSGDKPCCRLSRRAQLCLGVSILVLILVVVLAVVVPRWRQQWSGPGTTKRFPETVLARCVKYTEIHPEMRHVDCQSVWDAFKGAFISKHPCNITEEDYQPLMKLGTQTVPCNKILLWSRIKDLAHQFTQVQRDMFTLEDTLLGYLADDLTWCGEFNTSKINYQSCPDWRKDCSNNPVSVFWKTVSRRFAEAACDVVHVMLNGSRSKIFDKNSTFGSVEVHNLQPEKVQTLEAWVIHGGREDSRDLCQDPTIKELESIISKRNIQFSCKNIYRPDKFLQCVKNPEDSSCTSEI
# Columns and labels:
# [1] = system: orthotopic MM tumors (RPMI8226GL); assay: Orthotopic MM xenograft mouse model; type: in vivo, NOD/SCID IL2rg−/− mice; conditions: 0.5 mg/kg Dox, every other day, 13 treatments, observed up to 60 days
# Description: 0.5×10^6 RPMI8226 GL cells were inoculated bilaterally into tibiae of 8- to 10-week-old NOD/SCID IL2rg−/− mice. Engraftment was monitored by weekly whole-body bioluminescence imaging on Xenogen IVIS imaging system, as previously reported (Wen, J., Feng, Y, Bjorklund, C. C., Wang, M., Orlowski, R. Z., Shi, Z. Z., Liao, B., O'Hare, J., Zu, Y, Schally, A. V., et al. 2011. Luteinizing Hormone-Releasing Hormone (LHRH)-I antagonist cetrorelix inhibits myeloma cell growth in vitro and in vivo. Mol Cancer Ther 10:148-158). Starting with day 6, mice were treated with free DOX (0.5 mg/kg) or an equivalent ApDC amount (6 mice per group) every other day (13 treatments total). Treatments were administered via the tail vein injection. Bioluminescence intensities representative of tumor mass were quantified by Living Image 3.1. Mice were euthanized by CO2 as they became moribund and their survival curves were plotted with SPSS 10 statistical software (SPSS Inc., Chicago, Ill., USA). All experiments were approved by the IACUC of the Houston Methodist Research Institute. Cells isolated from tumor tissues were examined under a fluorescence microscope for GFP expression. […]
# control cells (HDLM2) [2] = assay: Intracellular DOX delivery by confocal microscopy, control cells; type: cell-based; conditions: HDLM2, 2 h treatment, equal molar DOX
# Description: (§1) CD38+ MM and CD38− non-MM cells were incubated with free DOX (0.5 μmol/L final concentration) or ApDC (final equivalent concentration of aptamer was 0.1 μmol/L and DOX—0.5 μmol/L) for 1 hour. After washing, cells were resuspended with fresh medium, cultured for 2 hours, and then examined under a 40× objective (Olympus FV 1000 confocal microscope). DOX fluorescence was excited with a 5 mW, 488 nm Ar+ laser.
# MM cells (RPMI8226) = assay: Intracellular DOX delivery by confocal microscopy, MM cells; type: cell-based, Human; conditions: RPMI8226, 2 h treatment, equal molar DOX
# Description: as §1
# [3] = DNase I digestion, release of free DOX; type: physicochemical
# [4] = Aptamer biostability in human serum, gel electrophoresis; type: in vitro ADME; conditions: human serum at 37° C.
# Description: (§2) In vitro biostability of Aptamer#1S was evaluated as previously described (49). In brief, the aptamer was incubated with human serum (Atlanta Biologicals) for 24 hours, and samples were collected at different times using phenol-chloroform extraction. The amount of undigested aptamer was visualized on a 5% agarose gel. In vivo experiments were done in accordance with the institutional guidelines for the use of laboratory animals. To determine the in vivo biostability of Aptamer#1S, 2×10^6 RPMI8226GL and K299GL cells were inoculated subcutaneously into 8- to 10-week-old NOD/SCID IL2rg−/− mice (Jackson Laboratory, Bar Harbor, Me.). Tumor growth was monitored by weekly whole-body bioluminescence imaging using Xenogen IVIS imaging system (PerkinElmer, Waltham, Mass.). Once tumors formed, 5 ng Cy5.5-labeled APTAMER#1S dissolved in PBS was injected via the tail vein and its signal was monitored on the IVIS system.
# control cells (HDLM2) [5] = assay: Cell binding assay of Cy3-labeled aptamers by flow cytometry, CD38-negative control cells
# From the text: (§3) The top-20 enriched aptamer sequences were synthesized to include Cy3 modification and their affinity and specificity analyzed by flow cytometry. Aptamer#1S was derived by truncating Aptamer#1 based on ValFold software structural prediction (VALWAY Technology Center, NEC Soft Ltd., Tokyo, Japan) (Navani, N. K., Mok, W. K., and Yingfu, L. 2009. In vitro selection of protein-binding DNA aptamers as ligands for biosensing applications. Methods Mol Biol 504:399-415).
# (§4) For aptamer staining, cells were stained with Cy3-labeled aptamer at 50 nmol/L (for flow cytometry analysis) or 100 nmol/L (for fluorescence microscopy, Olympus America, Melville, N.Y.) for 30 minutes. For 5(6)-Carboxyfluorescein diacetate N-hydroxysuccinimidyl ester (CFSE, Abcam, Cambridge, Mass.) staining, CD38-control cells were pre-stained with 0.5 μmol/L CFSE for 15 minutes according to the manufacturer's specifications and mixed with unlabeled CD38+MM cells, followed by Cy3-labeled aptamer staining for 30 minutes. For antibody staining, cultured cells or mononuclear cells freshly isolated from MM patient bone marrow samples were stained with antibody (BioLegend) as specified for 15 minutes.
# [6] = DOX loading capacity by quenching of DOX fluorescence; type: physicochemical; conditions: components alone, FIG. 3C
# Description: DOX was purchased from Thermo Fisher Scientific. Since DOX preferentially binds to double-stranded 5′-GC-3′ or 5′-CG-3′ repeats (Meng, L., Yang, L., Zhao, X., Zhang, L., Zhu, H., Liu, C., and Tan, W. 2012. Targeted delivery of chemotherapy agents using a liver cancer-specific aptamer. PLoS One 7:e33434), CG repeats were added to the 5′ end of Aptamer#1S to make the modified Aptamer#1S/CG-Cargo sequence. To determine the optimal molar ratio of aptamer to DOX, Apamer#1S/CG-Cargo sequence was heated at 95° C. for 5 minutes, cooled immediately on ice for 15 minutes, and then incubated with a fixed concentration of DOX (final concentration of DOX was 0.5 μmol/L) at various aptamer/DOX ratios ranging from 1:100 to 1:0.5. After 1 hour, the fluorescence (λEx=[…], λEm=[…]) was measured with a Synergy4 analyzer (BioTek, Winooski, Vt.). The minimal ratio at which the fluorescence of DOX was quenched to the maximal extent was determined as the optimal molar ratio (1:5 of aptamer to DOX) (29).
# cultured MM cells (MM1S) = assay: Fluorescence microscopy of a cell mixture stained with Cy3-labeled aptamer, MM cells; type: cell-based, Human
# Description: as §4
# [7] = system: xenograft tumors of MM (RPMI8226GL); assay: Whole body fluorescent imaging of Cy5.5-labeled aptamer, MM tumor; type: in vivo, NOD/SCID IL2rg−/− mice
# Description: as §2
# [8] = system: CD38+ (RPMI8226 and NCI-H929) and CD38− (K299 and Jeko1) cell lines; assay: Cell binding in additional CD38+ and CD38− cell lines
# Description: as §4
# [9] = system: CD38 negative control cells (HDLM2); assay: Fluorescence microscopy of a cell mixture stained with Cy3-labeled aptamer, control cells; type: cell-based; conditions: control cells pre-stained in green
# Description: as §4
# [10] = system: xenograft tumors of lymphoma (K299GL); assay: Whole body fluorescent imaging of Cy5.5-labeled aptamer, control tumor; type: in vivo, NOD/SCID IL2rg−/− mice; conditions: control tumor in the same mouse
# Description: as §2
# MM cells (MM1S) = assay: Cell binding assay of Cy3-labeled aptamers by flow cytometry, CD38+ MM cells; set-up: species or system Human; conditions: Cy3-labeled aptamer
# From the text: as §3, §4
# [11] = molecular target: T1, cellular CD38 proteins from MM cells (MM1S); assay: Precipitation of cell lysate proteins with biotin-labeled aptamers, western blot with anti-CD38 antibody; type: binding; conditions: MM1S lysates
# Description: Immunoprecipitation with biotin-labeled aptamers was performed as previously reported (Shi, F., Cheng, Y. F., Wang, X. L., and Edge, A. S. 2010. Beta-catenin up-regulates Atohl expression in neural progenitor cells by interaction with an Atohl 3′ enhancer. J Biol Chem 285:392-400). In brief, cells were lysed in radioimmunoprecipitation assay (RIPA) buffer supplemented with Halt protease and phosphatase inhibitor cocktail (Thermo Fisher Scientific). Biotin-labeled aptamers were incubated with lysates for 2 hours at 4° C. in SELEX binding buffer supplemented with Halt protease and phosphatase inhibitor cocktail. Aptamer-bound proteins were collected with streptavidin agarose resin (Thermo Fisher Scientific) following 1 hour incubation at 4° C. Precipitated proteins were washed 5 times with SELEX washing buffer supplemented with Halt protease and phosphatase inhibitor cocktail, boiled in sample buffer, and supernatants were analyzed by western blotting using an anti-CD38 antibody (Cell Signaling Technology, Danvers, Mass.). […]
Molecule,survival of mice bearing orthotopic MM tumors [1],intracellular DOX delivery into control cells (control cells (HDLM2) [2]),intracellular DOX delivery into MM cells (MM cells (RPMI8226)),fluorescence change after DNase treatment [3],time stable in human serum [4] [h],binding to control cells (HDLM2) (control cells (HDLM2) [5]),drug loading capacity [6],targeting of MM cells in cell mixture (cultured MM cells (MM1S); Cy3-labeled aptamer),internalization into MM cells (cultured MM cells (MM1S); intracellular signals),"accumulation in MM tumor ([7]; Cy5.5-labeled, systemic administration)",duration of specific imaging signals ([7]; post systemic administration),affinity and specificity in additional MM and control cells [8],reaction with control cells in cell mixture [9],accumulation in control tumor [10],binding to MM cells (MM1S) (MM cells (MM1S)),precipitation of cellular CD38 protein [11]
"COc1cccc2c1C(=O)c1c(O)c3c(c(O)c1C2=O)C[C@@](O)(C(=O)CO)C[C@@H]3O[C@H]1C[C@H](N)[C@H](O)[C@H](C)O1 [free DOX, doxorubicin]",no effect on mouse survival,non-specific intracellular drug accumulation,non-specific intracellular drug accumulation,no change,–,–,–,–,–,–,–,–,–,–,–,–
"Aptamer#1S: truncated 61-mer of Aptamer#1 inheriting the intact stem-loop structure, SEQ ID NO: 2 (nucleic acid, DNA, backbone and methylation of C not given here; further chemistry not fully specified) DNA: TCCAGAGTGACGCAGCAGCCAACGTGCTTTCTACCTTATTTTCCGTCACTCTCACTCTGGA",–,–,–,–,≥ 24,did not react to CD38-negative control cells,very limited drug loading capacity,selectively targeted MM cells,internalized into the MM cells,selectively accumulated in MM tumor,up to 12 h,further confirmed,did not react to control cells,not in control tumor,specifically targeted MM cells,specifically reacted to and immunoprecipitated cellular CD38 proteins
